Patent publication US20240424101A1 (CORREGENE BIOTECHNOLOGY, published 2024)

T1: HPV16 E7 peptide on HLA-A*02:01 (human)
T1 peptide: YMLDLQPET

B1: CRTE7A2 TCR (variable regions fused to murine constant regions) (TCR, V domains shown)
V domain 1: RKEVEQDPGPFNVPEGATVAFNCTYSNSASQSFFWYRQDCRKEPKLLMSVYSSGNEDGRFTAQLNRASQYISLLIRDSKLSDSATYLCAVISAGTALIFGKGTTLSVSS
V domain 2: DAGVTQSPTHLIKTRGQQVTLRCSPKSGHDTVSWYQQALGQGPQFIFQYYEEEERQRGNFPDRFSGHQFPNYSSELNVNALLLGDSALYLCASSLGWRGGLYTEAFFGQGTRLTVVE
B2: CRTE7A2 (TCR, V domains shown)
Valpha: B1 V domain 1
Vbeta: DAGVTQSPTHLIKTRGQQVTLRCSPKSGHDTVSWYQQALGQGPQFIFQYYEEEERQRGNFPDRFSGHQFPNYSSELNVNALLLGDSALYLCASSLGWRGGLYTEAFFGQGTRLTVV

Columns and labels:
[1] = molecular target: HPV16 E7 11-19 epitope (…) presented by HLA-A*02:01 (HPV16; human); test: cell-based or functional assay
[2] = molecular target: T1, HPV16 E7 peptide on HLA-A*02:01; test: multimer staining

Row | Binder | activation level of the NFAT-GFP reporter gene in Jurkat cells co-incubated with peptide-loaded T2 cells (EC50) [1] | binding result [2]
1 | B1 | 31 nM | 
2 | B2 |  | recognises
